Experimental data reported in the RNAGym collection of RNA variant scans (doi:10.7554/elife.90254).

B1: LINE1-full (parent)
chain: UACGUAGGUGGUUUUCCCCUGAUAGUGCUAAGGGGGCCUGGAAGUUUGGACUGGGCAGAGCUCAACACAGCGUGGCAAAGUGGCUGUGGCUAGACUGCCUCUCUGGAUUCCUCGUCACUCAGCAGGGCAUCUCUGAGAGAAAUGCC

Variants of: B1
Test: self-cleavage, relative activity (ratio to wild type); higher = more cleavage; in vitro, sequencing; the parent is a self-cleaving ribozyme
U15C U39C showed a self-cleavage of 1.51. U14C C56U showed a self-cleavage of 0.18. Work on U14G A117U yielded a self-cleavage of 0.78. With U14G A117G the self-cleavage was 0.39. Variant U14G U87C has a self-cleavage of 0.41. U14C A136C gave a self-cleavage of 1.36. U14C A136G gave a self-cleavage of 1.45. In the case of U14C A136U, the self-cleavage is reported as 1.42. Work on U15A U47G yielded a self-cleavage of 0. For U15A U47A, the self-cleavage was 0.76. U15A C84U showed a self-cleavage of 0.08. Work on U15C U62G yielded a self-cleavage of 0.15. U15C A42U gave a self-cleavage of 1.38. Work on U15C A42G yielded a self-cleavage of 1.43. For U15C C16U, the self-cleavage was 1.02. With U14C G114A the self-cleavage was 1.06. U14C G21A gave a self-cleavage of 1.39. Variant U15C U87C has a self-cleavage of 0.33. U15C G40A gave a self-cleavage of 0.3. Work on U14C G82A yielded a self-cleavage of 1.35. With U15C U143C the self-cleavage was 1.29. U14C A24U gave a self-cleavage of 1.07. With U14C A24G the self-cleavage was 0.81. U15C C68U gave a self-cleavage of 0.19. In the case of U15A G49A, the self-cleavage is reported as 0.74. In the case of U15A C123G, the self-cleavage is reported as 0.92. U14C G48U gave a self-cleavage of 1.15. With U14A U143A the self-cleavage was 0.99. In the case of U15G A78U, the self-cleavage is reported as 2.03. With U14C C99U the self-cleavage was 0.75. Variant U14C U39C has a self-cleavage of 1. For U14C U39A, the self-cleavage was 1.12. U14C U130A showed a self-cleavage of 1.47. Work on U14C U130C yielded a self-cleavage of 1.5. With U14C G88U the self-cleavage was 0.06. In the case of U15G A50C, the self-cleavage is reported as 1.37. U14C U112G gave a self-cleavage of 1.75. In the case of U15C A94G, the self-cleavage is reported as 0.34. Variant U14C A22G has a self-cleavage of 0.99. With U15C G27A the self-cleavage was 1.1. For U15C A30G, the self-cleavage was 1.14. U15C C17A showed a self-cleavage of 1.28. U14G U26A showed a self-cleavage of 1.18. For U14C A30G, the self-cleavage was 1.08. Variant U14C A30U has a self-cleavage of 1.11. In the case of U14C A67C, the self-cleavage is reported as 0.13. With U14C A67U the self-cleavage was 0. With U15A C128U the self-cleavage was 0.76. With U15A G127U the self-cleavage was 1.87. With U14A U119C the self-cleavage was 0.85. For U15A A79U, the self-cleavage was 1.09. In the case of U14C G75A, the self-cleavage is reported as 0.82. With U15A C111U the self-cleavage was 1.37. U14C C120U gave a self-cleavage of 1.48. For U14C U104A, the self-cleavage was 1.04. For U15A A124U, the self-cleavage was 0.85. In the case of U15A A124G, the self-cleavage is reported as 0.76. With U15A A142C the self-cleavage was 1.71. With U15A A69G the self-cleavage was 0.22. U14C G125A gave a self-cleavage of 1.46. With U15A A59G the self-cleavage was 0.08. With U14C C95U the self-cleavage was 0.21. U14G A121U showed a self-cleavage of 0.95. Work on U15C U85A yielded a self-cleavage of 0.1. U14C G27A showed a self-cleavage of 1.15. U15A A140G gave a self-cleavage of 1.11. In the case of U15A A140U, the self-cleavage is reported as 0.61. Variant U15C C19U has a self-cleavage of 1.08. U15A U87C gave a self-cleavage of 0.28. U15A U87A showed a self-cleavage of 0.08. With U15C U130C the self-cleavage was 1.19. U15C G126A gave a self-cleavage of 1.41. U15C A31U gave a self-cleavage of 0.95. With U15C A31G the self-cleavage was 0.75. Variant U14C A124G has a self-cleavage of 1.09. In the case of U14C A124U, the self-cleavage is reported as 1.25. U14C G33U gave a self-cleavage of 1.14. For U14C G33A, the self-cleavage was 1.02. Variant U15A A107U has a self-cleavage of 1.06. Variant U15A U26A has a self-cleavage of 0.5. With U15C A65C the self-cleavage was 0.09. Variant U15C A65G has a self-cleavage of 0.1. With U15C G60A the self-cleavage was 0.04. U14C A42U showed a self-cleavage of 1.02. Variant U15A A138U has a self-cleavage of 1.07. In the case of U15A A138G, the self-cleavage is reported as 1.45. With U14C A78U the self-cleavage was 1.44. Work on U15C C146G yielded a self-cleavage of 1.45. Work on U15A C118U yielded a self-cleavage of 0.49. Variant U15C U119A has a self-cleavage of 1.5. U15C C123U showed a self-cleavage of 1.72. Work on U15C A107U yielded a self-cleavage of 1.2. U15C U96C showed a self-cleavage of 0.23. Work on U15C U96A yielded a self-cleavage of 0.1. For U15C C116U, the self-cleavage was 0.62. Work on U14C C98U yielded a self-cleavage of 0.07. For U14C A94U, the self-cleavage was 0.29. U15A U20C gave a self-cleavage of 1.31. U14C U143C gave a self-cleavage of 1.02. Variant U14C U143A has a self-cleavage of 0.99. Work on U14C U143G yielded a self-cleavage of 1.93. In the case of U14G U39C, the self-cleavage is reported as 1.25. Work on U14C U15A yielded a self-cleavage of 0.93. U14C U15C showed a self-cleavage of 1.27. U15A U100G gave a self-cleavage of 1.07. U15A U100A gave a self-cleavage of 0.59. U14C A117U showed a self-cleavage of 1.3. Variant U14C A129G has a self-cleavage of 1.02. Work on U15A A22U yielded a self-cleavage of 1.16. U15A A22G gave a self-cleavage of 0.79. With U15A A22C the self-cleavage was 0.85. U14G A141G gave a self-cleavage of 0.89. With U15C G144U the self-cleavage was 1.61. For U15A U115A, the self-cleavage was 1.07. With U15A A77C the self-cleavage was 0.7. U15A U108C gave a self-cleavage of 1.49. With U15A U46A the self-cleavage was 0.71. With U15A U46C the self-cleavage was 0.76. Variant U15A A64G has a self-cleavage of 0.08. With U15A A64U the self-cleavage was 0.29. Work on U14G A129U yielded a self-cleavage of 0.89. In the case of U14G A129G, the self-cleavage is reported as 0.84. Variant U15C A141G has a self-cleavage of 1.51. With U15A C19A the self-cleavage was 0.79. With U15A C19U the self-cleavage was 0.93. U15C A92G gave a self-cleavage of 0.21. Variant U14C A141G has a self-cleavage of 1.03. For U14C G93U, the self-cleavage was 0.06. U15A U96C showed a self-cleavage of 0.41. In the case of U15A U96A, the self-cleavage is reported as 0.09. U14C C76A gave a self-cleavage of 1.31. Work on U15A U73C yielded a self-cleavage of 1.06. With U15A U45C the self-cleavage was 0.66. Work on U14G A67U yielded a self-cleavage of 0.39. U15A A92G showed a self-cleavage of 0.25. In the case of U15C U47C, the self-cleavage is reported as 1.64. For U15C U47A, the self-cleavage was 1.42. U15C C111U showed a self-cleavage of 1.47. U15A G44A showed a self-cleavage of 1.32. Work on U15G A31G yielded a self-cleavage of 0.79. U14C C37G gave a self-cleavage of 0.56. In the case of U14C C37U, the self-cleavage is reported as 0.95. U15A A57U showed a self-cleavage of 0.14. For U14C U45G, the self-cleavage was 1.34. For U15C U134C, the self-cleavage was 1.43. U15G A65G showed a self-cleavage of 0.1. U14C A140G gave a self-cleavage of 0.87. In the case of U14C A140U, the self-cleavage is reported as 1.22. U15G A141G gave a self-cleavage of 1. Variant U14A U134C has a self-cleavage of 1.62. Work on U15C A69G yielded a self-cleavage of 0.47. In the case of U15C C84G, the self-cleavage is reported as 0.21. In the case of U14C U26C, the self-cleavage is reported as 1.12. For U14C U26G, the self-cleavage was 1.61. With U15C C103U the self-cleavage was 1.53. U15C U81C showed a self-cleavage of 1.43. For U15C U81A, the self-cleavage was 2.14. Work on U14C G144A yielded a self-cleavage of 1.13. U14C G35A gave a self-cleavage of 1.22. U14C G35C gave a self-cleavage of 1.46. With U14C G35U the self-cleavage was 1.02. In the case of U15A C28A, the self-cleavage is reported as 1.16. U15A G35C gave a self-cleavage of 1.26. For U15C C145U, the self-cleavage was 1.47. Work on U15C G48A yielded a self-cleavage of 1.41. U15C C90A gave a self-cleavage of 0.02. For U15A A30U, the self-cleavage was 0.85.
